Source: patent US12072338B2, “Pharmaceutical peptides for the treatment of inflammatory diseases” (PROTAGONISTS LTD., priority 2007, dated 2024)

Key:
BCA-1 = target: T1, BCA-1 (Homo sapiens, UniProt O43927); assay: Micro-array analysis of chemokine binding peptides: BCA-1
T1 construct: purchased 300-47
T1 sequence (O43927 23-109): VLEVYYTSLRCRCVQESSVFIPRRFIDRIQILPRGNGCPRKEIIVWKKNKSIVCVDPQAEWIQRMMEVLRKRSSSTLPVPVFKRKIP
Procedure: (§1) (1) Printing: Chemokine (CK) solution (in water) was serially diluted with Print Reagent (GenTel BioSurfaces USA) to final concentrations of 50 μg and 25 μg/ml. BSA/BSA-Biotin control solutions (in water) were diluted with Print Reagent to 100 μg/ml. Amplified stock of M13 phage control (M13KEgIII Cloning Vector, New England Biolabs, Cat.No.E8101S) was stored in Tris Buffered Saline (TBS; pH7.5, 4° C.) and diluted with Print Reagent to the working titre (10^8 pfu/μl). An automated spotting robot (16 pin print tool, 0.4 mm head; BioRobotics, UK) was used to print the CK/BSA control/M13 control, 5 repeats per sample (CK 25 μg/ml and 50 μg/ml; BSA 100 μg/ml; M13 20 μl), on PATH Protein Microarray Slides (GenTel, Prod.No. 2-1005/-1025) at […], and 50-70% relative humidity. Printed micro-array slides were stored at Room Temperature (RT) or 4° C. for at least 24 h before use.
(§2) (2) Blocking: Block Buffer (500 μl/partition; PATHblock, GenTel, Prod.No. 2-1014) was applied to the slide for 1 hour at room temp (RT). After removal of Block Buffer, the slide was air dried for 25 minutes;
(§3) (3) Phage Presented Peptide Binding: Amplified recombinant phage stock was stored in TBS and diluted with Wash Buffer to working titer (10^7 pfu/μl). Recombinant phage suspension (300 μl) was applied per partition and incubated at RT for 1 hour with gentle agitation.
(§4) (4) First Washing: The slides were washed twice with Wash Buffer 300 μl/partition).
(§5) (5) Primary Antibody (Ab) Labeling: The slides were incubated with the Primary Ab (1 mg/ml diluted ×2500 (Wash Reagent), 300 μl; Mouse Anti-M13 monoclonal Ab; Amersham Biosciences, UK; Product Code 27-9420-01) for 45 minutes at RT.
(§6) (6) Second Washing: The slides were washed twice with Wash Buffer (300 μl/partition).
(§7) (7) Secondary Ab Labeling: The slides were incubated with Secondary Ab (1.5 mg/ml diluted ×5000 (Wash Reagent), 300 μl; Cy3-conjugated AffiniPure Goat Anti-Mouse IgG; Jackson ImmunoReserch Labs, USA; Product Code 115-165-062).
(§8) (8) Third Washing: The slides were washed twice with Wash Buffer (300 μl/partition).
(§9) (9) Rinse: the slides were rinsed twice with Rinse Buffer (PATHrinse, GenTel, Prod.No. 2-1018) then dried well.
(§10) (10) Scanning: The peptide-bound, labeled slide was scanned (Laser Intensity 80%, Gain 80%, Resolution 10 μm) with a ScanArray Life Scanner (Packard BioChip Technologies, USA).
(§11) (11) Analysis: Quantitative analysis of micro-array was performed by the SpotReader program of Niles Scientific (USA) and presented as Relative Fluorescence (RF) as a function of CK concentration. Micro-array readout (Cy3 fluorescence) was quantified to determine the relative binding affinities of a CBP for the CKs and by inference, the specificity of the CBP for binding to a CK.

Mig = target: T2, Mig (Homo sapiens, UniProt Q07325); assay: Micro-array analysis of chemokine binding peptides: Mig
T2 construct: purchased 300-26
T2 sequence (Q07325 23-125): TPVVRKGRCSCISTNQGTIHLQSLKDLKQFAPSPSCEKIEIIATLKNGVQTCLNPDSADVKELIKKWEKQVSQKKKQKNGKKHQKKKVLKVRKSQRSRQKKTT
Procedure: as §1, §2, §3, §4, §5, §6, §7, §8, §9, §10, §11

IP-10 = target: T3, IP-10 (Homo sapiens, UniProt P02778); assay: Micro-array analysis of chemokine binding peptides: IP-10
T3 construct: purchased 300-12
T3 sequence (P02778 22-98): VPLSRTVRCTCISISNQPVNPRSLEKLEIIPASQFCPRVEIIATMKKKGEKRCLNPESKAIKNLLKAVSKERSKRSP
Procedure: as §1, §2, §3, §4, §5, §6, §7, §8, §9, §10, §11

GRO-β = target: T4, GRO-β (Homo sapiens, UniProt P19875); assay: Micro-array analysis of chemokine binding peptides: GRO-β
T4 construct: purchased 300-39
T4 sequence (P19875 35-107): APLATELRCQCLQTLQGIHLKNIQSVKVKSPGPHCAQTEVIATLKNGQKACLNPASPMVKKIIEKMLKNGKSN
Procedure: as §1, §2, §3, §4, §5, §6, §7, §8, §9, §10, §11

MCP-4 = target: T5, MCP-4 (Homo sapiens, UniProt Q99616); assay: Micro-array analysis of chemokine binding peptides: MCP-4; details: limit = start of the upper 75% of that peptide's response range
T5 construct: purchased 300-24
Procedure: as §1, §2, §3, §4, §5, §6, §7, §8, §9, §10, §11

Fractalkine = target: T6, Fractalkine (Homo sapiens, UniProt P78423); assay: Micro-array analysis of chemokine binding peptides: Fractalkine
T6 construct: purchased 300-31
T6 sequence (P78423 25-100 limits assumed): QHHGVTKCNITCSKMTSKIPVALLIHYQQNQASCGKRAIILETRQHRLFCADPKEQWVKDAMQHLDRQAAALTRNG
Procedure: as §1, §2, §3, §4, §5, §6, §7, §8, §9, §10, §11

IL-8 = assay: Micro-array analysis of chemokine binding peptides: IL-8
Procedure: as §1, §2, §3, §4, §5, §6, §7, §8, §9, §10, §11

RANTES = target: T7, RANTES (Homo sapiens, UniProt P13501); assay: Micro-array analysis of chemokine binding peptides: RANTES
T7 construct: purchased 300-06
T7 sequence (P13501 24-91): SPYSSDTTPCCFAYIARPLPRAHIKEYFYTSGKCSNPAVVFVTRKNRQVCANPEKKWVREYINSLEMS
Procedure: as §1, §2, §3, §4, §5, §6, §7, §8, §9, §10, §11

MCP-1 = target: T8, MCP-1 (Homo sapiens, UniProt P13500); assay: Micro-array analysis of chemokine binding peptides: MCP-1; details: limit = start of the upper 75% of that peptide's response range
T8 construct: purchased 300-04
Procedure: as §1, §2, §3, §4, §5, §6, §7, §8, §9, §10, §11

MCP-2 = target: T9, MCP-2 (Homo sapiens, UniProt P80075); assay: Micro-array analysis of chemokine binding peptides: MCP-2; details: limit = start of the upper 75% of that peptide's response range
T9 construct: purchased 300-15
T9 sequence (P80075 24-99): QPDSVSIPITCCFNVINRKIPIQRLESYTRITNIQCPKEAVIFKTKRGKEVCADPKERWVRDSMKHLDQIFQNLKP
Procedure: as §1, §2, §3, §4, §5, §6, §7, §8, §9, §10, §11

Eotaxin 3 = target: T10, Eotaxin 3 (Homo sapiens, UniProt Q9Y258); assay: Micro-array analysis of chemokine binding peptides: Eotaxin 3
T10 construct: purchased 300-48
T10 sequence (Q9Y258 24-94): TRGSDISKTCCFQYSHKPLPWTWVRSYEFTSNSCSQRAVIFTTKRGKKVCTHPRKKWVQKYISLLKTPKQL
Procedure: as §1, §2, §3, §4, §5, §6, §7, §8, §9, §10, §11

Lymphotactin = target: T11, Lymphotactin (Homo sapiens, UniProt P47992); assay: Micro-array analysis of chemokine binding peptides: Lymphotactin
T11 construct: purchased 300-20
T11 sequence (P47992 22-114): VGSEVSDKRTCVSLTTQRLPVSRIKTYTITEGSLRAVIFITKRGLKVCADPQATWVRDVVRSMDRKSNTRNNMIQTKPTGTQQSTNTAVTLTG
Procedure: as §1, §2, §3, §4, §5, §6, §7, §8, §9, §10, §11

TECK = target: T12, TECK (Homo sapiens, UniProt O15444); assay: Micro-array analysis of chemokine binding peptides: TECK
T12 construct: purchased 300-45
T12 sequence (O15444 24-150): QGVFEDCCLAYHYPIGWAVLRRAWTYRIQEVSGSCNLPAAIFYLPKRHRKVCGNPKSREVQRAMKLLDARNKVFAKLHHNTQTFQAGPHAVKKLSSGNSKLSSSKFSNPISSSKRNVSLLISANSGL
Procedure: as §1, §2, §3, §4, §5, §6, §7, §8, §9, §10, §11

Eotaxin = target: T13, Eotaxin (Homo sapiens, UniProt P51671); assay: Micro-array analysis of chemokine binding peptides: Eotaxin
T13 construct: purchased 300-21
Procedure: as §1, §2, §3, §4, §5, §6, §7, §8, §9, §10, §11

Exodus-2 = target: T14, Exodus-2 (Homo sapiens, UniProt O00585); assay: Micro-array analysis of chemokine binding peptides: Exodus-2
T14 construct: purchased 300-35
T14 sequence (O00585 24-134): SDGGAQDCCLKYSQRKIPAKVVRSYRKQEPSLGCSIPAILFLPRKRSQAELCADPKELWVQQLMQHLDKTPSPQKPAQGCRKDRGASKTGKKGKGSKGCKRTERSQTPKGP
Procedure: as §1, §2, §3, §4, §5, §6, §7, §8, §9, §10, §11

I-309 = target: T15, I-309 (Homo sapiens, UniProt P22362); assay: Micro-array analysis of chemokine binding peptides: I-309
T15 construct: purchased 300-37
T15 sequence (P22362 24-96): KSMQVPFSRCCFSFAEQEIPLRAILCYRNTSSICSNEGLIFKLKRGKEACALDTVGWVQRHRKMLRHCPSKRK
Procedure: as §1, §2, §3, §4, §5, §6, §7, §8, §9, §10, §11

Eotaxin 2 = target: T16, Eotaxin 2 (Homo sapiens, UniProt O00175); assay: Micro-array analysis of chemokine binding peptides: Eotaxin 2
T16 construct: purchased 300-33
T16 sequence (O00175 27-119): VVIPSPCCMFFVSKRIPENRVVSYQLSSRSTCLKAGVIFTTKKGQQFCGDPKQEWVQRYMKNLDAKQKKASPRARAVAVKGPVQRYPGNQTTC
Procedure: as §1, §2, §3, §4, §5, §6, §7, §8, §9, §10, §11

I-TAC = target: T17, I-TAC (Homo sapiens, UniProt O14625); assay: Micro-array analysis of chemokine binding peptides: I-TAC
T17 construct: purchased 300-46
T17 sequence (O14625 22-94): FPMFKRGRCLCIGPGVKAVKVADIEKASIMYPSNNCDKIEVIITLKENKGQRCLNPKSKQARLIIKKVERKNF
Procedure: as §1, §2, §3, §4, §5, §6, §7, §8, §9, §10, §11

SDF1-α = target: T18, SDF1-α (Homo sapiens, UniProt P48061); assay: Micro-array analysis of chemokine binding peptides: SDF1-α
T18 construct: purchased 300-28a
Procedure: as §1, §2, §3, §4, §5, §6, §7, §8, §9, §10, §11

SDF1-β = target: T19, SDF1-β (Homo sapiens, UniProt P48061); assay: Micro-array analysis of chemokine binding peptides: SDF1-β
T19 construct: purchased 300-28b
Procedure: as §1, §2, §3, §4, §5, §6, §7, §8, §9, §10, §11

[1] = limit = start of the upper 75% of that peptide's response range

T8 sequence (P13500 24-99): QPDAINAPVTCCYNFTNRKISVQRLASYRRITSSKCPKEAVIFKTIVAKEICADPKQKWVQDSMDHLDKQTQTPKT
T5 sequence (Q99616 17-98): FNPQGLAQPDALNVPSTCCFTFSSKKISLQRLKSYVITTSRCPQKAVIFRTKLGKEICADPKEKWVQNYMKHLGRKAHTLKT
Chain of IL-8 (P10145 28-99 limits assumed): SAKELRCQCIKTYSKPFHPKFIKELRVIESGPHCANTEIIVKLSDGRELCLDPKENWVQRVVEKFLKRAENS
T18 sequence (P48061 22-89 limits assumed): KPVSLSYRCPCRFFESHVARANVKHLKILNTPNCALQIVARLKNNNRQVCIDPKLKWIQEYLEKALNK
T19 sequence (P48061 22-93): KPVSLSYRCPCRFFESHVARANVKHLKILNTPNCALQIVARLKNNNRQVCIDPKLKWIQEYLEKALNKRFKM

| binding to BCA-1, stated in words (BCA-1) | binding to Mig, stated in words (Mig) | binding to IP-10, stated in words (IP-10) | binding to MCP-4 with relatively high affinity (Relative Fluorescence Units) (MCP-4) | binding to Fractalkine, stated in words (Fractalkine) | binding to RANTES, stated in words (RANTES) | binding to MCP-1 with relatively high affinity (Relative Fluorescence Units) (MCP-1) | binding to MCP-2 with relatively high affinity (Relative Fluorescence Units) (MCP-2) | binding to Eotaxin 3, stated in words (Eotaxin 3) | binding to Lymphotactin, stated in words (Lymphotactin) | binding to TECK, stated in words (TECK) | binding to Eotaxin, stated in words (Eotaxin) | binding to Exodus-2, stated in words (Exodus-2) | Substance | also measured |
| --- | --- | --- | --- | --- | --- | --- | --- | --- | --- | --- | --- | --- | --- | --- |
| bound | bound | bound | > 15,000 RFU | bound | bound | > 15,000 RFU | > 15,000 RFU | bound | bound | bound | bound | bound | TKCOKE (TKCQKE; listed as Homo sapiens) [Ph-p20] | binding to GRO-β, stated in words (GRO-β): bound; binding to IL-8, stated in words (IL-8): bound |
| bound | bound | bound | > 15,000 RFU | – | – | > 15,000 RFU | > 15,000 RFU | bound | bound | bound | bound | bound | WVFGAAACK [Ph-p8.6] | binding to I-309, stated in words (I-309): bound; binding to Eotaxin 2, stated in words (Eotaxin 2): bound; binding to I-TAC, stated in words (I-TAC): bound; binding to SDF1-α, stated in words (SDF1-α): bound; binding to SDF1-β, stated in words (SDF1-β): bound |
| bound | – | – | > 15,000 RFU | bound | bound | > 15,000 RFU | > 15,000 RFU | bound | bound | bound | bound | bound | WVFGHGMCK [Ph-p25] | binding to Mig with relatively high affinity (Relative Fluorescence Units) (Mig; [1]): > 15,000 RFU; binding to IP-10 with relatively high affinity (Relative Fluorescence Units) (IP-10; [1]): > 15,000 RFU; binding to GRO-β with relatively high affinity (Relative Fluorescence Units) (GRO-β; [1]): > 15,000 RFU; binding to IL-8 with relatively high affinity (Relative Fluorescence Units) (IL-8; [1]): > 15,000 RFU |
